The text below walks through data of patent US9433687B2, “Anti-Notch3 antibodies and antibody-drug conjugates” (Pfizer Inc., priority 2012, dated 2016).

The subject of experiment [1] is Notch3 signaling in human Notch3 reporter cells co-cultured with DLL4-HEK293 cells. As to the kind of experiment: Notch3 reporter gene co-culture assay. Particulars: average of two or three independent experiments; read-out: IC50 (nM) inhibition of Notch3-dependent signaling. It is filed as cell-based. Here is the method: The ability of anti-Notch3 chimeric antibodies, ch28-hulgG1 and ch75-hulgG1, and humanized antibodies, hu28 and hu75, to inhibit Notch3 signaling were tested in a Notch3-dependent reporter gene co-culture assay. Anti-Notch3 antibodies were pre-incubated with Notch3 reporter cells and then co-cultured with DLL4-HEK293 cells to activate Notch3 signaling or with parental HEK293 cells as a control.
To generate the Notch3 reporter cell line, a series of three sequential, stable transfections were performed in the U-2 OS human osteosarcoma cell line (ATCC, Manassas, Va.). […]
To generate the ligand-expressing cells, HEK293 cells (ATCC) were transfected with a vector for expression of human DLL4. […] Following transfection, HEK293 cells were selected in 0.5 mg/ml G418, and clonal lines were isolated, expanded and analyzed for DLL4 expression. […]
The luminescent readings from Firefly-luciferase were divided by the internal control Renilla-luciferase reading to normalize the signals (termed hereinafter “F/R ratio”). […]
Human Notch3 reporter cells were trypinized and harvested from culture plate in assay medium which consisted 50% complete McCoy's 5A media (McCoy's 5A with 10% FBS and penicillin, streptomycin, Invitrogen) and 50% of complete MEM media (MEM with 10% FBS and penicillin, streptomycin, Invitrogen) and counted. […]
On the technique in general: In a reporter assay the amount or activity of a reporter protein is the signal.

For experiment [2], the system named is HCC2429 or MDA-MB-468 cells. As to the kind of experiment: Co-localization with LAMP1, indirect immunofluorescence. The class given is cell-based, human. Conditions: 10 μg/ml; after incubation at 37° C. for 90 minutes. Here is the method: HCC2429 or MDA-MB-468 cells were cultured in a Lab Tec II 4 chambered coverglass with cover #1.5 borosilicate sterile slides (Thermo Fisher Scientific Inc.). For binding and internalization assays, cells were washed twice with HBSS++ and unconjugated anti-Notch3 antibodies, hu75 and hu28, were added to the cells at a concentration 10 μg/ml in 2% bovine serum albumin (BSA)/HBSS++ for 25 minutes on ice. To visual membrane binding at time 0 minutes, control cells were washed with ice cold HBSS++ and then fixed in 4% paraformaldehyde in PBS for 10 minutes. For antibody internalization, cells were washed twice with ice cold HBSS++ and then pre-warmed complete growth media was added to the cells and placed inside a humidified 37° C., 5% CO2 incubator. Cells were removed from the incubator, washed and fixed as before at multiple time points from 5 minutes to 18 hours. Cells were then washed 3 times with PBS, and permeabilized for 10 minutes with 0.3% Triton X-100 in PBS. Cells were washed 3 times with PBS for 5 minutes each time and then blocked for 1 hour in 3% BSA/PBS. Anti-LAMP-1 mouse monoclonal antibody (H4A3, Abcam) was added at 1:100 in 2% BSA/PBS for overnight incubation at 4° C. Cells were washed twice with PBS for 5 minutes each and then secondary goat anti-human Alexa Fluor 488 and goat anti-mouse Alexa Fluor 555 (Life technologies) were added for 45 minutes in the dark. […]

The target in experiment [3] is T1, HCC2429 (Homo sapiens, UniProt Q9UM47).
T1 construct: endogenous Notch3 expressing cell lines, HCC2429 and MDA-MB-468; endogenous in cells; host or cells: HCC2429
The experiment in a line: Flow cytometry (FACS) binding, HCC2429. Conditions: 4 μg/mL antibody. Here is the method: Unconjugated anti-Notch3 antibodies, hu28 and hu75, were examined for cell surface binding activity to Notch3 expressing cell lines by flow cytometry. Fluorescence activated cell sorting (FACS) analysis was conducted according to standard procedures. Cells were rinsed in HBSS with calcium chloride and magnesium chloride (herein termed HBSS++), harvested using trypsin without EDTA and neutralized with medium containing FBS. Cells were incubated on ice for 30 minutes with 4 μg/mL anti-Notch3 antibodies, hu28 and hu75, in HBSS++containing 3% HICS (heat-inactivated calf serum). Cells were washed three times with cold HBSS++, 3% HICS buffer. Cells were incubated in allophycocyanin-conjugated AffiniPure F(ab′)2 fragment goat anti-human IgG, Fc fragment secondary antibody (Jackson ImmunoResearch Laboratories, Inc., West Grove, Pa.) at 10 μg/mL for 30 minutes on ice in the dark. Cells were washed once with cold HBSS++/3% HICS buffer. Cells were resuspended in HBSS-++/3% HICS, 25 mM HEPES, 1 mM MgCl2 and 25 μg/ml DNaseI. 7-AAD (7-Amino-Actinomycin D) was added for exclusion of nonviable cells. Live cells were analyzed on a BD FACSCalibur flow cytometer (BD Biosciences, San Jose, Calif.). Mean fluorescence intensity (MFI) from channel FL-4 was calculated with FlowJo flow cytometry analysis software (Ashland, Oreg.).
(In general: In flow cytometry, cells or beads pass a laser one at a time.)

T1 sequence (Q9UM47 40-2321): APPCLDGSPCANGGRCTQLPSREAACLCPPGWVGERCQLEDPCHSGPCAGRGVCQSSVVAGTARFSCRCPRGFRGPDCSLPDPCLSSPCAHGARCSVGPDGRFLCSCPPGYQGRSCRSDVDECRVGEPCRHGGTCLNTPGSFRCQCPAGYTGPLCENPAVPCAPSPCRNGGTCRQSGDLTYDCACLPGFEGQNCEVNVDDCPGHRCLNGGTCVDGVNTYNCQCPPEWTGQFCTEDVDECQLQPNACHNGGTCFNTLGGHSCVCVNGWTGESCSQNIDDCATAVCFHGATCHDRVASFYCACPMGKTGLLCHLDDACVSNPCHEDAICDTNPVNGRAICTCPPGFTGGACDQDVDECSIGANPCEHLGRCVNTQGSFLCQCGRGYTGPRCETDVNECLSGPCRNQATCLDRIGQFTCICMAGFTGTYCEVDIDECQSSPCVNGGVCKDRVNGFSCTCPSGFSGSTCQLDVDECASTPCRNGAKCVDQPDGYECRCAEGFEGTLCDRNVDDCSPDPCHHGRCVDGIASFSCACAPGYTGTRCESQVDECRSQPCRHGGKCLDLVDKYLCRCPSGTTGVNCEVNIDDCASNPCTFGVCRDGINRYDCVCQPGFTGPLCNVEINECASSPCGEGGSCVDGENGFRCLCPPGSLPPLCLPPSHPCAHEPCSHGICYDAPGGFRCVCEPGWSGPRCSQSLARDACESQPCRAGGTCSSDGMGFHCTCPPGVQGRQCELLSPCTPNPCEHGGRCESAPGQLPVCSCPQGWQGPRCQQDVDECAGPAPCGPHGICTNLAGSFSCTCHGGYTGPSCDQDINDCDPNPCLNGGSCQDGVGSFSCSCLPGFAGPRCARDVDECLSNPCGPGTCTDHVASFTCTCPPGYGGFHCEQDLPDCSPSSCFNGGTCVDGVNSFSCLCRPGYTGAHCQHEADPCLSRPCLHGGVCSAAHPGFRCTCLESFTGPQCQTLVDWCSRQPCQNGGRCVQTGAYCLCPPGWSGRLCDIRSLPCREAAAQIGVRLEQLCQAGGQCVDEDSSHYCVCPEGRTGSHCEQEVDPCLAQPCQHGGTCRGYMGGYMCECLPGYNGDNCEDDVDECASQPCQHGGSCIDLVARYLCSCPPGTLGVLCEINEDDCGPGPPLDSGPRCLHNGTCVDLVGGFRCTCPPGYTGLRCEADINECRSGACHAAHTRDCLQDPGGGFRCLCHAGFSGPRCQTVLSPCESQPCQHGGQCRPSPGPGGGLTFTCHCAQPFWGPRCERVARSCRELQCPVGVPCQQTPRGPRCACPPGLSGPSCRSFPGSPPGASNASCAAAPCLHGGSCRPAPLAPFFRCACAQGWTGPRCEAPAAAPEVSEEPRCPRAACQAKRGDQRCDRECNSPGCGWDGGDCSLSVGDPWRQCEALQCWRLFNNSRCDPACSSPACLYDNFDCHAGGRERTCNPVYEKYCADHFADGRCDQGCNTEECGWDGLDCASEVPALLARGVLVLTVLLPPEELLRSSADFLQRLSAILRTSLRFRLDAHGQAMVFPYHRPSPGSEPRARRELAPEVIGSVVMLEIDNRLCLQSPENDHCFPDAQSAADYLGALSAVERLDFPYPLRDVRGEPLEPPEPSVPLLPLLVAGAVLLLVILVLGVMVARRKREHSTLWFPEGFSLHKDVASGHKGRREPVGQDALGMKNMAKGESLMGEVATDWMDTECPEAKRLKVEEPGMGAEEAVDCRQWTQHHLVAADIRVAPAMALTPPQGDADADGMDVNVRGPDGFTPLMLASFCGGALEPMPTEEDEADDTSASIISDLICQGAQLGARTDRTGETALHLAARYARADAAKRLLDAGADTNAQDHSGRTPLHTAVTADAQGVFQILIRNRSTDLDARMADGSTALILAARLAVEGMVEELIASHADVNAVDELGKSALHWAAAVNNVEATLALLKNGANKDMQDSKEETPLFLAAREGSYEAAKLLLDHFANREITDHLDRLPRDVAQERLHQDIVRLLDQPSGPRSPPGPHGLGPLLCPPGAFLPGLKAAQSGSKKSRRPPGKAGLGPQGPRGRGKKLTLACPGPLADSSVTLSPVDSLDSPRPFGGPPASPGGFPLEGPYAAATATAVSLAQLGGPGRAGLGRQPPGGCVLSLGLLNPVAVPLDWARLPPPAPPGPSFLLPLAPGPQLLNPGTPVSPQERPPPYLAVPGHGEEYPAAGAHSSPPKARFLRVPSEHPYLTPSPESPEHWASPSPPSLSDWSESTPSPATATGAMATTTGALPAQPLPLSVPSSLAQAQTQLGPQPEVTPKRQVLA

B1: ch75: rat-human chimeric anti-Notch3 antibody 75, rat variable regions fused with human IgG1 and human kappa (antibody, V domains shown)
VH: QVKLLQSGAALVKPGASVKMSCKASGYAFTDYWVTWVKQSHGKSLEWIGEISPNSGGTNFNEKFKGKATLTVDKSTSTAYMELSRLTSEDSAIYYCTRGEIRYNWFAYWGQGTLVTVSS
VL: NIVMTQSPKSMSISVGDRVTMNCKASQNVGNNIAWYQQKPGQSPKLLIYYASNRYTGVPDRFTGGGYGTDFTLTINSMQAEDAAFYYCQRLYNSPFTFGSGTKLEIK
With B1, the IC50 (usually the midpoint of a concentration-inhibition curve) in experiment [1] stood at 2.1 nM.

B2: hu28 VH1.0/VL1.0: humanized r28 variant VH1.0/VL1.0, anti-Notch3 antibody (VH SEQ ID NO: 13, VL SEQ ID NO: 25) (antibody, V domains shown)
VH: EVQLVESGGGLVQPGGSLRLSCAASGFTFRDYGMTWVRQAPGKGLEWVAYISSGSNYIYYAEAVKGRFTISRDNAKNSLYLQMNSLRAEDTAVYYCARRGPFVLDAWGQGTLVTVSS
VL: DIQMTQSPSSLSASVGDRVTITCKASQSINRYLHWYQQKPGKAPKLLIYNANGLQTGVPSRFSGSGSGTDFTLTISSLQPEDFATYYCLQHNTWPDTFGGGTKVEIK
As to B2, the “co-localization with LAMP1 after internalization” value in experiment [2] is “co-localized with anti-LAMP1 antibodies”. In experiment [3], this molecule registered an MFI of 564.
